The test system of data set [1] is HeLa Kyoto. The data set can be described thus: solubility in G1/S (NP-40 vs SDS abundance) (log2 ratio); higher = more soluble. To be noted: cell cycle stage: G1/S.
Data set [2] has as its system HeLa Kyoto. The data set can be described thus: melting temperature (median over replicates), in situ; higher = more thermally stable.
Data set [3] deals with HeLa Kyoto. The data set can be described thus: solubility change mitosis vs G1/S (difference of NP-40 vs SDS log2 ratios) (log2 ratio difference); higher = more soluble in mitosis.
For data set [4], the system named is HeLa Kyoto. The data set is described as follows: thermal stability score vs G1/S (z-score of summed log2 fold changes over temperatures); higher = more thermally stable than in G1/S.
Where [5] appears, read: cell cycle stage: early G1 (4.5 h after nocodazole release).

The text below walks through data of the supplement of paper PMC5998384.
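Wherever melting temperature (median over replicates), in situ is given: HeLa Kyoto cells synchronized by double thymidine or nocodazole block, proteins quantified by TMT10plex mass spectrometry, three independent biological replicates.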
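Wherever solubility change mitosis vs G1/S (difference of NP-40 vs SDS log2 ratios) is given: synchronized HeLa Kyoto cells (double thymidine block for G1/S, nocodazole release for mitosis), protein amounts in NP-40 versus SDS lysates quantified by mass spectrometry, three biological replicates.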
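Wherever solubility in G1/S (NP-40 vs SDS abundance) is given: HeLa Kyoto cells arrested at G1/S by double thymidine block, proteins quantified by TMT10plex mass spectrometry in mild NP-40 versus SDS extracts, three biological replicates.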
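Wherever thermal stability score vs G1/S (z-score of summed log2 fold changes over temperatures) is given: synchronized HeLa Kyoto cells, proteins quantified by TMT10plex mass spectrometry, three biological replicates, mitosis taken 0.5 h after nocodazole release, G1/S directly after double thymidine block.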

As for “MLCVGRLGGLGARAAALPPRRAGRGSLEAGIRARRVSTSWSPVGAAFNVKPQGSRLDLFGERRGLFGVPELSAPEGFHIAQEKALRKTELLVDRACSTPPGPQTVLIFDELSDSLCRVADLADFVKIAHPEPAFREAAEEACRSIGTMVEKLNTNVDLYQSLQKLLADKKLVDSLDPETRRVAELFMFDFEISGIHLDKEKRKRAVDLNVKILDLSSTFLMGTNFPNKIEKHLLPEHIRRNFTSAGDHIIIDGLHAESPDDLVREAAYKIFLYPNAGQLKCLEELLSSRDLLAKLVGYSTFSHRALQGTIAKNPETVMQFLEKLSDKLSERTLKDFEMIRGMKMKLNPQNSEVMPWDPPYYSGVIRAERYNIEPSLYCPFFSLGACMEGLNILLNRLLGISLYAEQPAKGEVWSEDVRKLAVVHESEGLLGYIYCDFFQRADKPHQDCHFTIRGGRLKEDGDYQLPVVVLMLNLPRSSRSSPTLLTPSMMENLFHEMGHAMHSMLGRTRYQHVTGTRCPTDFAEVPSILMEYFANDYRVVNQFARHYQTGQPLPKNMVSRLCESKKVCAAADMQLQVFYATLDQIYHGKHPLRNSTTDILKETQEKFYGLPYVPNTAWQLRFSHLVGYGARYYSYLMSRAVASMVWKECFLQDPFNRAAGERYRREMLAHGGGREPMLMVEGMLQKCPSVDDFVSALVSDLDLDFETFLMDSE [MIPEP]”, in data set [1], the “solubility in G1/S (log2)” value is -0.0439. Also, the melting temperature in data set [2] (cell cycle stage: G1/S) is 51.2 °C; in data set [2] (cell cycle stage: mitosis), 50.4 °C. Further, the “solubility change mitosis (log2)” value in data set [3] is -0.0647. The thermal stability score in data set [4] (setting [5]) was 0.154; in data set [4] (cell cycle stage: mitosis), 0.0672.
In the case of “MSRRRHSDENDGGQPHKRRKTSDANETEDHLESLICKVGEKSACSLESNLEGLAGVLEADLPNYKSKILRLLCTVARLLPEKLTIYTTLVGLLNARNYNFGGEFVEAMIRQLKESLKANNYNEAVYLVRFLSDLVNCHVIAAPSMVAMFENFVSVTQEEDVPQVRRDWYVYAFLSSLPWVGKELYEKKDAEMDRIFANTESYLKRRQKTHVPMLQVWTADKPHPQEEYLDCLWAQIQKLKKDRWQERHILRPYLAFDSILCEALQHNLPPFTPPPHTEDSVYPMPRVIFRMFDYTDDPEGPVMPGSHSVERFVIEENLHCIIKSHWKERKTCAAQLVSYPGKNKIPLNYHIVEVIFAELFQLPAPPHIDVMYTTLLIELCKLQPGSLPQVLAQATEMLYMRLDTMNTTCVDRFINWFSHHLSNFQFRWSWEDWSDCLSQDPESPKPKFVREVLEKCMRLSYHQRILDIVPPTFSALCPANPTCIYKYGDESSNSLPGHSVALCLAVAFKSKATNDEIFSILKDVPNPNQDDDDDEGFSFNPLKIEVFVQTLLHLAAKSFSHSFSALAKFHEVFKTLAESDEGKLHVLRVMFEVWRNHPQMIAVLVDKMIRTQIVDCAAVANWIFSSELSRDFTRLFVWEILHSTIRKMNKHVLKIQKELEEAKEKLARQHKRRSDDDDRSSDRKDGVLEEQIERLQEKVESAQSEQKNLFLVIFQRFIMILTEHLVRCETDGTSVLTPWYKNCIERLQQIFLQHHQIIQQYMVTLENLLFTAELDPHILAVFQQFCALQA [NCBP1]”, the “solubility in G1/S (log2)” value in data set [1] is -0.297. Further, the melting temperature was determined as 50 °C in data set [2] (cell cycle stage: G1/S) and 50.4 °C in data set [2] (cell cycle stage: mitosis). In addition, the “solubility change mitosis (log2)” value in data set [3] was -0.144. The thermal stability score in data set [4] (setting [5]) is 0.234; in data set [4] (cell cycle stage: mitosis), 0.31.
For “MDPLSELQDDLTLDDTSEALNQLKLASIDEKNWPSDEMPDFPKSDDSKSSSPELVTHLKWDDPYYDIARHQIVEVAGDDKYGRKIIVFSACRMPPSHQLDHSKLLGYLKHTLDQYVESDYTLLYLHHGLTSDNKPSLSWLRDAYREFDRKYKKNIKALYIVHPTMFIKTLLILFKPLISFKFGQKIFYVNYLSELSEHVKLEQLGIPRQVLKYDDFLKSTQKSPATAPKPMPPRPPLPNQQFGVSLQHLQEKNPEQEPIPIVLRETVAYLQAHALTTEGIFRRSANTQVVREVQQKYNMGLPVDFDQYNELHLPAVILKTFLRELPEPLLTFDLYPHVVGFLNIDESQRVPATLQVLQTLPEENYQVLRFLTAFLVQISAHSDQNKMTNTNLAVVFGPNLLWAKDAAITLKAINPINTFTKFLLDHQGELFPSPDPSGL [ARHGAP1]”, the “solubility in G1/S (log2)” value in data set [1] stood at 0.473. For the same sequence, the melting temperature in data set [2] (cell cycle stage: G1/S) and in data set [2] (cell cycle stage: mitosis) was 51.4 °C in each case. The “solubility change mitosis (log2)” value in data set [3] was -0.0609. For the same sequence, the thermal stability score in data set [4] (setting [5]) is 0.517; in data set [4] (cell cycle stage: mitosis), 0.431.
In the case of “MAACEGRRSGALGSSQSDFLTPPVGGAPWAVATTVVMYPPPPPPPHRDFISVTLSFGENYDNSKSWRRRSCWRKWKQLSRLQRNMILFLLAFLLFCGLLFYINLADHWKALAFRLEEEQKMRPEIAGLKPANPPVLPAPQKADTDPENLPEISSQKTQRHIQRGPPHLQIRPPSQDLKDGTQEEATKRQEAPVDPRPEGDPQRTVISWRGAVIEPEQGTELPSRRAEVPTKPPLPPARTQGTPVHLNYRQKGVIDVFLHAWKGYRKFAWGHDELKPVSRSFSEWFGLGLTLIDALDTMWILGLRKEFEEARKWVSKKLHFEKDVDVNLFESTIRILGGLLSAYHLSGDSLFLRKAEDFGNRLMPAFRTPSKIPYSDVNIGTGVAHPPRWTSDSTVAEVTSIQLEFRELSRLTGDKKFQEAVEKVTQHIHGLSGKKDGLVPMFINTHSGLFTHLGVFTLGARADSYYEYLLKQWIQGGKQETQLLEDYVEAIEGVRTHLLRHSEPSKLTFVGELAHGRFSAKMDHLVCFLPGTLALGVYHGLPASHMELAQELMETCYQMNRQMETGLSPEIVHFNLYPQPGRRDVEVKPADRHNLLRPETVESLFYLYRVTGDRKYQDWGWEILQSFSRFTRVPSGGYSSINNVQDPQKPEPRDKMESFFLGETLKYLFLLFSDDPNLLSLDAYVFNTEAHPLPIWTPA [MAN1B1]”, in data set [1], the “solubility in G1/S (log2)” value came to 0.19. In addition, the values for the melting temperature in data set [2] (cell cycle stage: G1/S) and in data set [2] (cell cycle stage: mitosis) were 51.6 °C and 52.1 °C, respectively. Further, the “solubility change mitosis (log2)” value in data set [3] is -0.189. Further, the thermal stability score amounted to 0.594 in data set [4] (setting [5]) and 0.346 in data set [4] (cell cycle stage: mitosis).
As for “MDALKSAGRALIRSPSLAKQSWGGGGRHRKLPENWTDTRETLLEGMLFSLKYLGMTLVEQPKGEELSAAAIKRIVATAKASGKKLQKVTLKVSPRGIILTDNLTNQLIENVSIYRISYCTADKMHDKVFAYIAQSQHNQSLECHAFLCTKRKMAQAVTLTVAQAFKVAFEFWQVSKEEKEKRDKASQEGGDVLGARQDCTPSLKSLVATGNLLDLEETAKAPLSTVSANTTNMDEVPRPQALSGSSVVWELDDGLDEAFSRLAQSRTNPQVLDTGLTAQDMHYAQCLSPVDWDKPDSSGTEQDDLFSF [LDLRAP1]”, the “solubility in G1/S (log2)” value in data set [1] was determined as 0.466. For the same sequence, in data set [2] (cell cycle stage: mitosis), the melting temperature was determined as 50 °C. Moreover, the “solubility change mitosis (log2)” value in data set [3] stood at 0.0321. The thermal stability score in data set [4] (setting [5]) was -0.147; in data set [4] (cell cycle stage: mitosis), 0.000284.
